From PMC6765112, “Specificity of MYB interactions relies on motifs in ordered and disordered contexts” (Nucleic Acids Research, 2019)
Where two headings read alike, the source gives them in different places. Ends that are not written are not given here. * marks the point of attachment. Biotin = O=C1N[C@H]2[C@H](CS[C@H]2CCCCC(=O)*)N1

T1: MYC4 N-terminal domain (L55-N253) (Arabidopsis thaliana, UniProt O49687 55-253)
T1 chain: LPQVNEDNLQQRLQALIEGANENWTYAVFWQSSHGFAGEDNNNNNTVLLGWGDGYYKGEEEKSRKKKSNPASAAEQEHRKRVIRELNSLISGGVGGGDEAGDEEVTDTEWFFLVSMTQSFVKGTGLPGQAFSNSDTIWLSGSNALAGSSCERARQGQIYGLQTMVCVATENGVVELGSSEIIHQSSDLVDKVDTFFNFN

T2: L190V-MIM peptide (F180-G201 of MYB29, L190V) (Arabidopsis thaliana, UniProt Q9FLR1 180-201, L190V, biotin on the N-terminus)
T2 construct: MYB29, Arabidopsis thaliana, 22 residues F180-G201; source: synthetic peptide (TAG Copenhagen A/S)
T2 peptide (looked up): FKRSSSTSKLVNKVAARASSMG

B1: WT-MIM peptide (F180-G201 of MYB29) (peptide, UniProt Q9FLR1 180-201, looked up)
peptide: Biotin-FKRSSSTSKLLNKVAARASSMG
notes: source: synthetic peptide (TAG Copenhagen A/S)
B2: MYB75: full-length MYB75 (MYB subgroup 6), control prey for GL3 (protein)
chain: MEGSSKGLRKGAWTTEEDSLLRQCINKYGEGKWHQVPVRAGLNRCRKSCRLRWLNYLKPSIKRGKLSSDEVDLLLRLHRLLGNRWSLIAGRLPGRTANDVKNYWNTHLSKKHEPCCKIKMKKRDITPIPTTPALKNNVYKPRPRSFTVNNDCNHLNAPPKVDVNPPCLGLNINNVCDNSIIYNKDKKKDQLVNNLIDGDNMWLEKFLEESQEVDILVPEATTTEKGDTLAFDVDQLWSLFDGETVKFD
modifications: left off: NubG and FRB (from the vector pFRB), end not stated, kept
notes: full-length MYB75 (MYB subgroup 6), control prey for GL3
B3: MYC4 N-terminal domain (L55-N253) (domain or fragment, Arabidopsis thaliana, UniProt O49687 55-253, looked up)
chain: T1 chain
notes: MYC4, Arabidopsis thaliana, N-terminal domain with the JID, residues L55-N253 (AA55-253); recombinant protein of 22.7 kDa; expressed from pET52u; source: E. coli BL21(DE3), purified (HisTrap HP IMAC, dialysed to PBS pH 7.4 with 1 mM DTT); not shown: 6xHis, C-terminal, kept
B4: non-MYB region of MYB75: non-MYB region of MYB75 (residues K110-D248) (protein)
chain: KKHEPCCKIKMKKRDITPIPTTPALKNNVYKPRPRSFTVNNDCNHLNAPPKVDVNPPCLGLNINNVCDNSIIYNKDKKKDQLVNNLIDGDNMWLEKFLEESQEVDILVPEATTTEKGDTLAFDVDQLWSLFDGETVKFD
modifications: left off: NubG and FRB (from the vector pFRB), end not stated, kept
B5: MYB75 DBD: fragment comprising the MYB DBD (residues M1-P114) (protein, UniProt Q9FE25 1-114, looked up, fragment)
chain: MEGSSKGLRKGAWTTEEDSLLRQCINKYGEGKWHQVPVRAGLNRCRKSCRLRWLNYLKPSIKRGKLSSDEVDLLLRLHRLLGNRWSLIAGRLPGRTANDVKNYWNTHLSKKHEP

How the values were obtained:
[1] = molecular target: T1, MYC4 N-terminal domain (L55-N253); experiment: BLI
[2] = molecular target: B3; experiment: BLI; biotinylated peptide (1 μM) immobilised on streptavidin biosensors; MYC4Nt 130 to 0.1 μM; PBS pH 7.4, 1 mM DTT, 0.05% bovine serum albumin; BLItz; equilibrium responses fitted to a Hill equation; conditions: both partners purified
[3] = system: GL3; experiment: Split-ubiquitin assay, GL3 as bait; assay type: cell-based, Arabidopsis thaliana; conditions: yeast, SD-AHLW growth
Description: The rapamycin-compatible yeast strain NMY51 TOR1-1 Δfpr1 ([35]) was transformed according to DUALhunter™ kit instructions (Dualsystems biotech). Briefly, overnight 2×YPAD cultures were diluted to OD600 = 0.2, and incubated at 30°C, 150 RPM for 4–6 h in 2×YPAD, before harvesting the cells by centrifugation at 700 g for 5 min. The cells were washed with H2O, then 0.1 M LiOAc, before resuspending in 0.1 M LiOAc with 15% glycerol. The competent cells were then aliquoted and stored at −80°C until transformation. For double transformation with bait and prey plasmids, competent cells were thawed on ice, and mixed with transformation mix (240 μl 50% PEG-3350, 35 μl 1 M LiOAc and 25 μl 2 mg/ml ssDNA per transformation) and 200 ng of each plasmid, before being exposed to a 42°C heat shock in a water bath for 45 min. The cells were then chilled on ice for a few minutes, sedimented by centrifugation (3000 g, 1 min), resuspended in sterile H2O, plated on SD-LW plates and grown at 30°C for 2–3 days.
For drop tests, cells from three individual colonies of each bait/prey combination were grown overnight in liquid SD-LW media. Next day, culture densities were normalized to OD600 = 0.05, dilution series (OD600 = 0.05, OD600 = 0.005, OD600 = 0.0005 and OD600 = 0.00005) were spotted on square plates (SD-LW, SD-AHLW and SD-AHLW+Rapa) and grown for 2 days at 30°C before taking pictures.
To identify interaction sites mediating specific MYB–MYC complex formation, we selected two TFs from each family. These were MYB28 and MYB29 from MYB subgroup 12, and two of their partner bHLH TFs, MYC3 and MYC4. To define the region mediating the interactions we applied a chemically inducible dimerization split-ubiquitin system ([35]). […] This is used as an in-built positive control for correct expression and functionality of the prey fusion protein and thereby reduces the incidence of false negatives.

[4] = molecular target: T2, L190V-MIM peptide (F180-G201 of MYB29, …); experiment: BLI; biotinylated peptide (1 μM) immobilised on streptavidin biosensors; MYC4Nt 130 to 0.1 μM; PBS pH 7.4, 1 mM DTT, 0.05% bovine serum albumin; BLItz; equilibrium responses fitted to a Hill equation; conditions: both partners purified
[5] = system: GL3; conditions: ref [32]; cited from earlier work
Source text: To identify interaction sites mediating specific MYB–MYC complex formation, we selected two TFs from each family. These were MYB28 and MYB29 from MYB subgroup 12, and two of their partner bHLH TFs, MYC3 and MYC4. To define the region mediating the interactions we applied a chemically inducible dimerization split-ubiquitin system ([35]). […] As controls, we included the interaction between GL3 and MYB75, where a fragment c ...

For B1, the Kd [1] was 1900 nM and the Kd [2] was 2700 ± 800 nM.

In the case of B2, the “interaction with GL3 (in words)” value [3] is reported as “results in growth on SD-AHLW plates”.

Biotin-FKRSSSTSKLVNKVAARASSMG [L190V-MIM peptide (F180-G201 of MYB29, L190V)] gave a Kd [1] of 33000 nM.

With B3 the “fold weaker affinity than the WT-MIM peptide” value [4] was roughly 10 fold.

In the case of B4, the “interaction with GL3 (in words)” value [3] is given as “does not” and the “interaction with GL3 (in words)” value [5] is given as “unable to interact”.

For B5, the “interaction with GL3 (in words)” value [3] is listed as “results in growth on SD-AHLW plates” and the “interaction with GL3 (in words)” value [5] is listed as “sufficient for this interaction”.
